Test results: the nanobody polyreactivity screen of Harvey et al. (2022)

Test: yeast display, Sf9 membrane polyspecificity reagent, FACS + sequencing; frameworks hold sequencing errors
Outline: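 In a synthetic yeast display library (Saccharomyces cerevisiae BJ5465), nanobody expression was induced with galactose for 36–48 hours. FACS gates were set low and high (top ~1%) using anti-HA fluorescence for expression and streptavidin fluorescence for binding of the Sf9 membrane reagent. Each polyreactivity label is drawn from the gate of origin.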

Row | Sequence | polyreactivity (PSR sort gate)
1 | QVQLVESGGGLVQAGGSLRLSCAASGRTLTAYAMGWYRQAPGKERELVAAISVTGDNTYYADSVKGRFTISRDNAKNTVYLQMNSLKPEDTAVYYCDARKQYKYGYWGQGTQVTVSS | low polyreactivity
2 | QVQLVESGGGLVQAGGSLRLSCAASGRTLTGNAMGWYRPAPGKERELVAVISYSGTNTRYADSVKGRFTISRDNAKNTVYLQMNSLKPEDTAVYYCAADWLGISVVRDPFDHWGQGTQVTVSS | high polyreactivity
3 | QVQLVESGGGLVQAGGSLRLSCAASGRTLTGNAMGWYRQAPGKERELVAVISYSGTNTRYADSVKGRFTISRDNAKNTVYLQMNSLKPEDTAVYYCAARRPAPNYSSRYDYWGQGTQVTVSS | high polyreactivity
4 | QVQLVESGGGLVQAGGSLRLSCAASGRTLTIYAMGWYRQAPGKERELVATIRSSGSTNYADSVKGRFTISRDNAKNTVYLQMNSLKPEDTAVYYCAARGNTPRTRRYGYWGQGTQVTVSS | high polyreactivity
5 | QVQLVESGGGLVQAGGSLRLSCAASGRTLVHYAMGWYRQAPGKERELVAAISIGGDSTYAVSVKGRFTISRDNAKNTVYLQMNSLKPEDTAVYYCAASGWWDFFDPYFKFDYWGQGTQVTVSS | low polyreactivity
6 | QVQLVESGGGLVQAGGSLRLSCAASGRTLVWYTMGWYRQAPGKEREFVAVITTGSGSTYYADSVKGRFTISRDNAKNTVYLQMNSLKPEDTAVYYCNAGYGGYSYHYPPYEYWGQGTLVTVSS | low polyreactivity
7 | QVQLVESGGGLVQAGGSLRLSCAASGRTLVYYAMGWYRQAPGKERELVAAITWRGGRTYYADSVKGRFTISRDNAKNTVYLQMNSLKPEDTAVYYCAKDGGHTGDYWGQGTQVTVSS | low polyreactivity
8 | QVQLVESGGGLVQAGGSLRLSCAASGRTLYANTMGWYRPAPGKERELVATIPRDGSTNYADSVKGRFTISRDTAKNTVYLQMNSLKPEDTAVYYCNADLWVNLDNDDDYWGQGTQVTVSS | low polyreactivity
9 | QVQLVESGGGLVQAGGSLRLSCAASGRTLYHYGMGWYRQAPGKERELVAAINFSGGSTNYADSVKGRFTISRDNAKNTVYLQMNSLKPEDTAVYYCNNEGRPDRDYWGQGTQVTVSS | low polyreactivity
10 | QVQLVESGGGLVQAGGSLRLSCAASGRTLYLYAMGWYRQAPGKERELVAAIDWRGTSTYYADSVKGRFTISRDNAKNTVYLQMNSLKPEDTAVYYCNAEGRWSSFTQRMDYWGQGTQVTVSS | low polyreactivity
11 | QVQLVESGGGLVQAGGSLRLSCAASGRTLYQYAMGWYRQAPGKERELVAVITSRGGSTNYADSVKGRFTISRDNAKNTVYLQMNSLKPEDTAVYYCAVLYPKYGKRYGYWGQGSQVTVSS | high polyreactivity
12 | QVQLVESGGGLVQAGGSLRLSCAASGRTLYRYAMGWYRQEPGKERELVAAIRSGGRTNYADSVKGRFTISRDNAKNTVYLQMNSLKPEDTAVYYCAARTLRYPSTYDYWGQGTQVTVSS | high polyreactivity
13 | QVQLVESGGGLVQAGGSLRLSCAASGRTLYYNPMGWYRQAPGKEREFVAAISYSGGGTYYADSVKGRFTISRDNAKNTVYLQMNSLKPEDTAVYYCNARIRRPYRVTAEYDYWGQGTQVTVSS | high polyreactivity
14 | QVQLVESGGGLVQAGGSLRLSCAASGRTLYYYAMGWYRQAPGKERELVAAITRSGGSTYYADSVKGRFTISRDNAKNTVYLQMISLKPEDTEVYYFNKYGYKGGLGYDYWGQGTQVTVSS | high polyreactivity
15 | QVQLVESGGGLVQAGGSLRLSCAASGRTNWTYVMGWYRQAPGKERELVAAISRSGSSTYYADSVKGRFTISRDNAKNTVYLQMNSLKPEDTAVYYCNNVDGTTLDDHYMDYWGQGTQVTVSS | low polyreactivity
16 | QVQLVESGGGLVQAGGSLRLSCAASGRTQTRYTMGWYRQAPGKERELVATISRSGGNTHYADSLKGRFTISRDNAKNTVYLQMNSLKPEDTEVYYCNAVRYAIYGYDYWGQGTQVTVSS | high polyreactivity
17 | QVQLVESGGGLVQAGGSLRLSCAASGRTSGFNTMGWYRQAPGKERELVAAISFSGGSTYYADSVKGRFTISRDNAKNTVYLQMNSLKPEDTAVYYCNALFRYLYRSGDYWGQGTQVTVSS | low polyreactivity
18 | QVQLVESGGGLVQAGGSLRLSCAASGRTSGNNAMGWYRQAPGKERELVAAITRGGRTYYADSVKGRFTISRDNAKNTVYLQLNSLKPEDTAVYYCAARRYFYLFGYYYWGQGTQVTVSS | high polyreactivity
19 | QVQLVESGGGLVQAGGSLRLSCAASGRTSLGNAMGWYRQAPGKERELVAAISGSGGSTYYADSVKGRFTISRDNAKNTVYLQMNSLKPEDTAVYYCNKKLYGYQHYYWYYYWGQGTQVTVSS | high polyreactivity
20 | QVQLVESGGGLVQAGGSLRLSCAASGRTSLLYAMGWYRQAPGKERELVATISIGGSTYYADSVKGRFTISRDNAKKTVYLQMKSRKPEDTAVYYCAADVWWFFQPSTLGDFEYWGQGTQVTVSS | low polyreactivity
21 | QVQLVESGGGLVQAGGSLRLSCAASGRTSLVYAMGWYRQAPGKERELVAAITSSGGTTYYADSVKGRFTISRDNAKNTVYLQMNSLKPEDTAVYYCAADVDVSYWRMEYWGQGTQVTVSS | high polyreactivity
22 | QVQLVESGGGLVQAGGSLRLSCAASGRTSLVYAMGWYRQAPGKERQLVAAISRGGTTNYADSVKGRFTISRDNAKNTVYLQMNSLKPEDTAVYYCAARTIYHVRPMYYWGQGTQVTVSS | high polyreactivity

Row | Sequence | polyreactivity (PSR sort gate)
23 | QVQLVESGGGLVQAGGSLRLSCAASGRTSPGYAMGWYRQAPGKEREFVAGISRGGGSTYYADSVKGRFTISRDNAKNTVYLQMNSLKPEDTEVYYCNVRGPGFYWNWGQSHYYGYDYWGQGTQVTVSS | high polyreactivity
24 | QVQLVESGGGLVQAGGSLRLSCAASGRTSQINAMGWYIQAPGKERELVAAITRGGGITYYADSVKGRFTISRDNAKNTVYLQMNSLKPEDTAVYYCATRGSSFVQYRTRYGYWGQGTQVTVSS | high polyreactivity
25 | QVQLVESGGGLVQAGGSLRLSCAASGRTSRYYAMGWYRQAPGKERELVAAISSSGGNTYYADSVKGRFTISRDNAKNTVYLQMNSLKPEDTAVYYCNAYYPIRSSPYGYYYWGQGTQVTVSS | high polyreactivity
26 | QVQLVESGGGLVQAGGSLRLSCAASGRTSSINAMGWYRQAPGKERELVAVITGGGRTSYADSVKGRFTISRDNAKNTVDLQMNSLIPEDTAVYYCNATRSYYGYYYWGQGTQVTVSS | high polyreactivity
27 | QVQLVESGGGLVQAGGSLRLSCAASGRTSSTYDMGWYRLAPGKERELVADITWYGGSTYYADSVKGRFTISRDNAKNTVYLQMNSLIPEDTAVYYCAAERKDGGYGYGFYWGVVGLDYWGQGTQVTVSS | low polyreactivity
28 | QVQLVESGGGLVQAGGSLRLSCAASGRTSSVYAMGWYRQAPGKESELVAAINRSDGGTYYADSVKGRFTISRDNAKNTVYLQMNSLKPEDTAVYYCARRYYYQYRYDYWGQGTQVTVSS | high polyreactivity
29 | QVQLVESGGGLVQAGGSLRLSCAASGRTSSYTMGWYRQAPGKERELVAAITRRGVSTYYADSLKGRFTISRDNAKNTVYFQMNSLKAEDTAVYYCAVGPRASFGYGYWGQGTQVTVSS | high polyreactivity
30 | QVQLVESGGGLVQAGGSLRLSCAASGRTSVPYAMGWYRQAPGKERELVAAITSGGSTYYADSVKGRFTISRDNAKNTVYLQMNSQKPEDTAVYYCAASQPHSAPYTASYGSWGQGTQVTVSS | low polyreactivity
31 | QVQLVESGGGLVQAGGSLRLSCAASGRTSVRYAMGWYRQAPGKERELVAAISWSGGSTYYADSVKGRFTISRDNAKNTVYLQMNSLKPEDTAVYYCAAERGPTNHTSYPWYEYDYWGQGTQVTVSS | low polyreactivity
32 | QVQLVESGGGLVQAGGSLRLSCAASGRTSVVNAMGWYRQAPGKERELVAAITSGGSTHYADSVKGRFTISRDNAKNTVYLPMNSLKPEDTAVYYCNARDRRRTNLLDYWGQGTQVTVSS | low polyreactivity
33 | QVQLVESGGGLVQAGGSLRLSCAASGRTSWVYAMGWYRQAPGTERELVASIRKRTVVYADSVKGRFTISRDNAKNTVYLQMNSLKPEDTAVYYCNADTTFYGYRTYRPENYWGQGTQVTVSS | high polyreactivity
34 | QVQLVESGGGLVQAGGSLRLSCAASGRTSWYYAMGWYRQAPGKERELVAAITASGGSTYADSVKWRFTISRDNAKNTVYLQMNSLKPEDTAVYYCAAERPYSRVGYYYWGQGTQVTVSS | high polyreactivity
35 | QVQLVESGGGLVQAGGSLRLSCAASGRTSYRYAMGWYRQAPGKERELVAAISWSGGSTYYADSVKGRFTISRDNAKNTVSLQMNSLKPDDTAVYYCNARQHQVRWWLREFDYWGQGTQVTVSS | low polyreactivity
36 | QVQLVESGGGLVQAGGSLRLSCAASGRTSYTNAMGWYRQAPGKERELVAAINYSGGSTYYADSVKGRFTISRDNAKNTVYLQMNSLKPEDTAVYYCAAERYYWYTEMGYWGQGTQVTVSS | high polyreactivity
37 | QVQLVESGGGLVQAGGSLRLSCAASGRTSYTYTMGWYRQAPGKERELVAAISWNAGSTYYADSVKGRFTISRDNAKNTVSLQMNSLKPEDTAVYYCNRRIFGGQRMYYWGQGTQVTVSS | high polyreactivity
38 | QVQLVESGGGLVQAGGSLRLSCAASGRTSYTYVMGWYRQAPGKERELVAAIRLSGGNTYYADPVKGRFTISRDNAKNTVYLQMNSLKPEDTAVYYCAAQYWRHRKAYGYWGQGTQVTVSS | high polyreactivity
39 | QVQLVESGGGLVQAGGSLRLSCAASGRTSYVYAMGWYRQAPGKERELVASITGSAGSTYYADSVKGRFTISRDNAKNTVYLQMNSLKPEDTAVYYCAVLRWRSWSSPGYYWGQGTQVTVSS | high polyreactivity
40 | QVQLVESGGGLVQAGGSLRLSCAASGRTVPGYVMGWYRQARGKERELVAAITSGGSTNYADSVKGRFTISRDNAKNTVYLQMNSLKPEDTAVNYCNADRNRWPWSVFTSEYWGQGTQVTVSS | low polyreactivity
41 | QVQLVESGGGLVQAGGSLRLSCAASGRTVSNYAMGWSRQAPGKERELVSAISTGGTSTYYADSVKGRFTISRDYAKNTVYLQMNSLKPEDTAVYYCIAVGGWVTHWLLREGDYWGQGTQVTVSS | low polyreactivity
42 | QVQLVESGGGLVQAGGSLRLSCAASGRTYRYYAMGWYRQAPGKERELVAAITASTGRTYYADSVKGRFTISRDNAKNSVYLQMNRLKPEDTAVYYCDARQSSYRYPGSYEYWGQGTQVTVSS | high polyreactivity
43 | QVQLVESGGGLVQAGGSLRLSCAASGRTYSQNAMGWYRQSPGKERELVAAIRRGGSTNYADSVKGRFTISRDNAKNTVYLQMNSLKPEDSAVYDCAADLRRNGWGFDYWGLGTQVTVSS | high polyreactivity
